Experimental data: publication PMC2746283, “BtubA-BtubB Heterodimer Is an Essential Intermediate in Protofilament Assembly” (PLoS ONE, 2009)
Where a chain is given by its changes, count along the chain named. Numbers in names are those of the source.

B1: BtubA-V179K (natural protein, P. dejongeii)
chain: MKVNNTIVVSIGQAGNQIAASFWKTVCLEHGIDPLTGQTAPGVAPRGNWSSFFSKLGESSSGSYVPRAIMVDLEPSVIDNVKATSGSLFNPANLISRTEGAGGNFAVGYLGAGREVLPEVMSRLDYEIDKCDNVGGIIVLHAIGGGTGSGFGALLIESLKEKYGEIPVLSCAVLPSPQKSSVVTEPYNTVFALNTLRRSADACLIFDNEALFDLAHRKWNIESPTVDDLNLLITEALAGITASMRFSGFLTVEITLRELLTNLVPQPSLHFLMCAFAPLTPPDRSKFEELGIEEMIKSLFDNGSVFAACSPMEGRFLSTAVLYRGIMEDKPLADAALAAMREKLPLTYWIPTAFKIGYVEQPGISHRKSMVLLANNTEIARVLDRICHNFDKLWQRKAFANWYLNEGMSEEQINVLRASAQELVQSYQVAEESGAKAKVQDSAGDTGMRAAAAGVSDDARGSMSLRDLVDRRR
B2: BtubA, wild type (natural protein, P. dejongeii)
chain: B1 chain with K179V
B3: BtubA-E258K (natural protein, P. dejongeii)
chain: B1 chain with K179V, E258K
B4: BtubB, wild type (natural protein)
chain: VREILSIHVGQCGNQIADSFWRLALREHGLTEAGTLKEGSNAAANSNMEVFFHKVRDGKYVPRAVLVDLEPGVIARIEGGDMSQLFDESSIVRKIPGAANNWARGYNVEGEKVIDQIMNVIDSAVEKTKGLQGFLMTHSIGGGSGSGLGSLILERLRQAYPKKRIFTFSVVPSPLISDSAVEPYNAILTLQRILDNADGAVLLDNEALFRIAKAKLNRSPNYMDLNNIIALIVSSVTASLRFPGKLNTDLSEFVTNLVPFPGNHFLTASFAPMRGAGQEGQVRTNFPDLARETFAQDNFTAAIDWQQGVYLAASALFRGDVKAKDVDENMATIRKSLNYASYMPASGGLKLGYAETAPEGFASSGLALVNHTGIAAVFERLIAQFDIMFDNHAYTHWYENAGVSRDMMAKARNQIATLAQSYRDAS
notes: BtubB, bacterial tubulin-like protein of Prosthecobacter; the species is printed only for BtubA (P. dejongeii); also called B-wt; BtubB WT; source: E. coli, purified as described previously [3], with an added Sephacryl HR-100 column step; not shown: His tag, N-terminal, kept
B5: BtubB-N100E (natural protein)
chain: B4 chain with N100E
notes: BtubB of Prosthecobacter (species printed only for BtubA: P. dejongeii) with the point mutation N100E; also called within-dimer mutant of BtubB; source: E. coli, purified as described previously [3], with an added Sephacryl HR-100 column step; not shown: His tag, N-terminal, kept
B6: BtubB-D249K (natural protein)
chain: B4 chain with D249K
notes: BtubB of Prosthecobacter (species printed only for BtubA: P. dejongeii) with the point mutation D249K; The running text twice calls it BtubA-D249K; also called between-dimer mutant on the bottom of BtubB; source: E. coli, purified as described previously [3], with an added Sephacryl HR-100 column step; not shown: His tag, N-terminal, kept

Experiments:
BtubB, wild type = biological target: B4; assay: cell-based or functional assay
BtubB-D249K = biological target: B6; assay: cell-based or functional assay
BtubB-N100E = biological target: B5; assay: cell-based or functional assay
BtubA, wild type = biological target: B2; assay: AUC; sedimentation equilibrium of BtubA + BtubB mixtures, 20°C, 10,000-14,000 rpm, HMK buffer (50 mM Hepes, 5 mM MgAc, 350 mM KAc, 1 mM EGTA, pH 7.7), no GTP; molar ratios 1:4 to 4:1, each protein 8 to 32 µM; global fit to a monomer-dimer model (HeteroAnalysis); conditions: both partners purified
BtubA-E258K = biological target: B3; assay: as above; conditions: both partners purified
BtubA-V179K = biological target: B1; assay: as above; conditions: both partners purified

| GTPase activity of the 1:1 mixture, per BtubB (GTP regeneration, coupled NADH assay, ∼29°C) (BtubB, wild type) | GTPase activity of the 1:1 mixture, per BtubB (GTP regeneration, coupled NADH assay, ∼29°C) (BtubB-D249K) | Binder | other results |
| --- | --- | --- | --- |
| 0.072 GTP min^−1 Btub^−1 | 0.079 GTP min^−1 Btub^−1 | B1 |  |
|  | 0.077 GTP min^−1 Btub^−1 | B2 |  |
| 0.088 GTP min^−1 Btub^−1 |  | B3 | GTPase activity of the 1:1 mixture, per BtubB (GTP regeneration, coupled NADH assay, ∼29°C) (BtubB-N100E): 0.098 GTP min^−1 Btub^−1 |
|  |  | B4 | Kd (BtubA, wild type): 7.3 µM |
|  |  | B5 | Kd (BtubA-E258K): 61 µM |
|  |  | B6 | Kd (BtubA-V179K): 3.2 µM |
